# Reference: patent publication US20230363418A1, “COMPOSITION FOR PREVENTING OR TREATING NEUROPSYCHOLOGIC DISEASE, COMPRISING MANF” (CEFO CO., LTD., priority 2020, published 2023)
# Assays:
# [1] = tested on: hippocampal-derived neural stem cells; assay: Immunoblotting of differentiation markers (NeuN, GAD65/67, vGAT) in differentiating neural progenitor cells; assay type: cell-based, rat
# Protocol: To determine the optimal dose of MANF to promote the expression of differentiation markers in neural progenitor cells, immunoblotting experiments were performed using NeuN antibody that labels the nuclei of mature neurons, glutamic acid decarboxylase (GAD65/67) and vesicular […] (vGAT) that label GABAergic nerve cells.
# Specifically, hippocampal-derived neural stem cells were isolated from the brain of E16 rat embryos. Hippocampal ridges were minced from the embryonic forebrains of E16 rats using sterile fine tweezers under a dissecting microscope. The tissues were collected, mechanically separated using a pipette in Ca^2+/Mg^2+-freeHBSS (Invitrogen) solution, and planted at 19,000 cells/cm^2 in 35 mm culture dishes precoated with 15 µg/ml poly-L-ornithine and 1 µg/ml fibronectin (Sigma). The cells were cultured under the condition of 5% CO2 for 3 days using a serum-free N2 medium (medium for proliferation) supplemented with 10 ng/mL basic fibroblast growth factor(bFGF, Invitrogen). Thereafter, the cells were removed using 0.05% trypsin/EDTA (ethylene-diamine-tetraacetic acid), and neural progenitor cells were planted on a 12 mm glass coverglass (Belco) for immunostaining and on a 100 mm dish for immunoblotting and cultured in N2 medium for proliferation containing bFGF for 1 day. Thereafter, in the proliferation condition, the medium continuously containing bFGF was treated with MANF at the indicated concentration and cultured for 2-3 days; and in the differentiation condition, MANF was added to the medium for differentiation not containing bFGF, which was cultured for 3-7 days. In the control group (vehicle), physiological saline was added in the same volume instead of MANF.
# After 3-7 days of differentiation of the cultured neural stem cells, the medium was removed and washed once with PBS (Phosphate-buffered saline). Then, all the cells were lysed using a lysis buffer to which a protease inhibitor was added. The lysate was loaded in a 10% gel in the same volume, then transferred to a PVDF (Polyvinylidene Fluoride) membrane and blocked with 2% BSA in TBST or 5% skim milk in TBST at room temperature for 1 hour. As primary antibodies, rb-GAD65/67 (1:1000), mo-NeuN (1:1000), mo-Vgat (1:700), and mo-actin (1:2000) were used, and the primary antibodies were diluted with 2% BSA in TBST, reacted at 4° C. for 16 hours, and then washed with […]. As secondary antibodies, mo-HRP (1:5000) and rb-HRP (1:5000) were used, and the secondary antibodies were diluted in 2% skim milk in TBST or 2% BSA in TBST, reacted for 1 hour, and then developed on films. As control antibodies, mo-tubulin (Millipore, 05-661, 1:2000) and mo-actin (Santa cruz, SC-47778, 1:2000) were used.
# [2] = tested on: primary neural progenitor cells; assay: GAD-GFP reporter plasmid assay of GABAergic nerve cell differentiation; assay type: cell-based, rat; settings: MANF 30 ng/ml
# Description: In order to efficiently investigate the differentiation of the primary neural progenitor cells into GABAergic nerve cells by MANF, a plasmid (GAD-GFP) capable of easily and effectively observing and detecting the differentiation into the GABAergic nerve cells with the naked eye by recombining green fluorescent protein (GFP), a fluorescent protein, into the promoter region of the human GAD gene was used. When the activity of the promoter is increased, the differentiation into GABAergic nerve cells is promoted, and whether or not the activity of the promoter is increased can be monitored by the expression level of a reporter gene operably linked thereto. Accordingly, it can be seen that the differentiation into GABAergic nerve cells is promoted when the expression level of the reporter gene is increased. In addition, it is possible to easily observe the differentiation of GABAergic nerve cells using a transcription factor that binds to the promoter.
# Specifically, on day 3 after culturing the primary neural progenitor cells, the cells were separated from the dish with 0.05% trypsin and subcultured, and then all groups were transfected with GAD-GFP DNA. The cells were seeded in a 24-well plate and cultured in N2 medium containing 10 ng/mL bFGF for 24 hours. N2 medium for differentiation without bFGF was treated with MANF at a concentration of 30 ng/ml, and after 3 and 5 days, it was fixed and stained.
# [3] = tested on: IBO-administered memory impairment and autism model; assay: Passive avoidance test; assay type: in vivo, rat; settings: MANF-AAV-hMSC transplanted into the hippocampus of IBO rats
# Protocol: Memory impairment and autism models were prepared by administering IBO to the entorhinal cortex of the rats, wherein the IBO destroys granule cells of the dentate gyrus (DG) and pyramidal cells of the hippocampus, which receive nerve signals input from the entorhinal cortex. Specifically, the rats were anesthetized with equitensin (10% ethanol containing 350 mM pentobarbital sodium, 250 mM chloral hydrate, 85 mM MgSO and 40% propylene glycol). The incisor bar of a stereotaxic device (Stoelting Co., U.S.A.) was placed 3.4 mm below the interaural line, and the injection needle angle was fixed at […] right from the center of the sagittal plane. 1.5 ul of IBO (1 mg/ml) was injected into the entorhinal cortex of the rat using the stereotaxic device. The IBO was injected into three locations of first, AP: -8.4, ML: -4.8, DV: -4.6; Second, AP; -8.4, ML: -4.8, DV: […]; Third, AP: -8.8, ML: - 3.65, DV: -3.4 (FIG. 7). […]
# It was performed according to the method described in Heo Het al. (2009) for the same number of rats as in each group of Example 6-1. […] Exactly 24 hours after the adaptation training, the rats were placed in the bright room again, and the latency time to enter the dark room was measured for 720 seconds (confinement experiment).
# [4] = MANF at 30 ng (tested 10-50 ng/ml), differentiation condition, vs vehicle
molecule,measurement,setting,value
"MANF: one of 16 or more growth factors secreted into nerve stem cells by cerebrovascular cells; amino acid sequence of SEQ ID NO: 1 (protein, MANF) MRRMWATQGLAVALALSVLPGSRALRPGDCEVCISYLGRFYQDLKDRDVTFSPATIENELIKFCREARGKENRLCYYIGATDDAATKIINEVSKPLAHHIPVEKICEKLKKKDSQICELKYDKQIDLSTVDLKKLRVKELKKILDDWGETCKGCAEKSDYIRKINELMPKYAPKAASARTDL",NeuN protein increase (immunoblotting),[1]; [4],1.6 fold
same,amount of GAD65/67 protein increase (immunoblotting),[1]; [4],about 2.5 fold
same,amount of vGAT protein increase (immunoblotting),[1]; [4],about 2.5 fold
same,"optimal dose of MANF (NeuN, GAD65/67 and vGAT protein all increased the most)",[1]; tested 10-50 ng/ml,30 ng/mL
same,number of NeuN-stained cells in MANF-treated group vs Con group,[2]; 3 and 5 days,no greater increase
same,"GFP-positive cells (GAD promoter-GFP, GABAergic differentiation)","[2]; 3 and 5 days, vs Con group",increased compared to the Con group
same,number of NeuN-stained cells,[2]; after 3 days of differentiation,10%
same,number of NeuN-stained cells,[2]; after 5 days of differentiation,50%
same,memory ability in passive avoidance test,[3],memory improvement
